# According to the nanobody polyreactivity screen of Harvey et al. (2022):
# Test: yeast display, Sf9 membrane polyspecificity reagent, FACS + sequencing; frameworks hold sequencing errors
# Procedure, shortened: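 A nanobody's polyreactivity label depends on the gate it was sorted from. Yeast display cells were stained with 10% biotinylated, detergent-solubilized Sf9 membrane reagent for 1 hour at 4 °C, enriched on streptavidin microbeads and sorted by FACS. The low and high (top ~1%) gates were set on anti-HA fluorescence for expression and streptavidin fluorescence for reagent binding.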
row,Sequence,polyreactivity (PSR sort gate)
1,QVQLVESGGGLVQAGGSLRLSCAASGSTFDENAMAWYRQAPGKEWELVAVISDSGGSTYYADSVKGRFTISRDNAKNTVYLQMNSLKPEDTAVYYCAADQSSLDYGNDYWGQGTQVTVSS,low polyreactivity
2,QVQLVESGGGLVQAGGSLRLSCAASGFTFYVNAMGWYRQAPGKERELVAAISSSGTRTYYADSVKGRFTISRDNAKNTVYLQMNSLKPEDTAVYYCAARGQAYSGDRMYYWGQGTLVTVSS,high polyreactivity
3,QVQLVESGGGLVQAGGSLRLSCAASGITFQDNAIGSNRQAPGKERELVAAISTGSTNYADSVKGRFTISRDNAKNTVYLQMKSLKPDDTAVYYCAALGQYQTVYSDGYDYYYWGQGTQVTVSS,low polyreactivity
4,QVQLVESGGGLVQAGGSLRLSCAASGITFGGYALGWYRQAPGKEREFVAGISSSGRSTYYADSVKGRFTISRDNAKNTVYLQMYSLKPEDTAVYYCAVYRVRKVYVLRGPFYYWGQGTQVTVSS,high polyreactivity
5,QVQLVESGGGLVQAGGSLRLSCAAYGSIFTGNTMGWYRQATGKERELVATISRRGGSTYYADSVKGRFTISRDNAKNTVYLQMNSLKPEDTAVYYCARGTVYLTWRNDYWGQGTQVTVSS,high polyreactivity
6,QVQLVESGGGLFQAGGSLRLTCAASGSTISDYAIGWYRQAPGKERELVAAISTRGGSTYYADSVKGRFTISRDNAKNTVYLQMNSLKPEDTAVYYCAKGGYVPKLEYWGQGTQVTVSS,high polyreactivity
7,QVQLVESGGGLVQAGGSLRLSCAASGFIFYRYAMGWYRQAPGKERELVAAITSSGGSTYYADSVKGRFTISRDNAKNTVYLQMNSLKPEDTAVYYCAARYTTSRYGYWGQGTQVTVSS,high polyreactivity
8,QVQLVESGGGLVQAGGSLRLSCAASGSTSGIYAMGWSRQAPGKERELVAAIDTSGGSTYADSVKGRFTISRDNAKNTVYLQMNSLKPEATAVYYCARTWGLRYRWSYGRSRYNFWGQGTQVTVSS,low polyreactivity
9,QVQLVESGGGLVQAGGSLRLSCAPSGSIFRWYAMGWYRQAPGKERELVAAITSGGSTYYADSVKGRFTISRDNAKNTVYVQMNSLKPEDTAVYYCNAAKLASHTYDYWGQGTQVTVSS,low polyreactivity
10,QVQLVESGGGLVQAVGSLRLSCAPSGSTFFKYARGWYRQAPGKERELVAVITRSGGTTYYADSVKGRFTISRDNAKNTVYLLMNSLKPEDTAVYYCAAGYYQYHRGYPTFTRYDYWGQGTQVTVSS,high polyreactivity
11,QVQLVESGGGLVQAGGSLRLSCAASGSIFSVYAMGWYRPAPGKERELVASITNDGSTNYADSVKGRFTISRDNAKNTVYLQMNSLKPEDTAVYYCNADSYTKLDYWGQGTQVTVSS,low polyreactivity
12,QVQLVESGGGLVQAGGSLRLSCAASGRIFGVYAMGWYRQAPGKERELVAAITFNAGSTYYADSVKGRFTISRDNAKNTVYLQMNSLIPEDTAVYYCNAYTESWYPIYFFGWSYTDVDYWGQGTQVTVSS,low polyreactivity
13,QVQLVESGAGLVQAGGSLRLSCAASGSTFDSYVMGWYRQAPGKERDLVAAISRRGGSTYYADSVKGRFTISRDNAKNSVYLQMNSLKPEDTAVYYCARTVGYRTLLESDSWGQGTQVTVSS,high polyreactivity
14,QVQLVESGGGLVQAGGSLSLSCAASGIISTYYVMGWYRQAPGKERELVAAITGGDSSTYYADSVKGRFTISRDNAKNTVYLQMNSLKPEDTAVYYCAKEYYYARGARYDYWGQGTQVTVSS,low polyreactivity
15,QVQLVESGGGLVQAGGSLRLICAASGRTFRGYTMGWYRQAPGKERELVAAITWSGGSTYYADSVKGRFTISRDNAKNTVYLQMNSLKPEDTAVYYCAATKYLSFLYDYWGQGTLVTVSS,high polyreactivity
16,QVQLVESGGGLVQEGGSLRLSCAASGSIFKQYAMGWYRQAPGKERELVAAISYSGGTTYYADSVKGRFTISRDNAKNTVYLQMNSMKPEDTAVYYCAAEWWILSYRFDYWGQGTQVTVSS,high polyreactivity

row,Sequence,polyreactivity (PSR sort gate)
1,QVQLVESGGGLVQAGGSLRLSCAASGNTFNPNAMGWYRQAPGKERELVAVIRFRGGSTYYADSVKGRFTISRDNAKNTVYLQMNSLKPEDTAVYYCAADFLYYYLRYYYWGQGTQVTVSS,high polyreactivity
2,QVQLVESGGGLVQAGVSLRLSCPAGGSTFYKYVMGWYRQAPGKEREVVAAISVNGGDTYYADSVKGRFTISRDNAKNTVSVQMNSLNPEDTAVYYCAAERGVDLSARYGDNDNWGQGTQVTVTS,low polyreactivity
3,QVQLVESGGGLVQAGGSLRLSCAASGSTFTVNTMGWYRQAPGKERELVDAISFGGGPTYYADSVKGRFTISRDNAKNTVYLQMNSLKPDDTAVYYCAARGYLWHARKYYYWGQGTQVTVSS,high polyreactivity
4,QVQLVESGGGLVQAGGSLRLSCAASGFNFYDYTMGWYRQAPGKERELVAAISWSGGSTYHADSVKGRFTISRDTAKNTVYLQMNSLKPEDTAVYYCNADYGYYKSGYGFDYWGQGTKVTVSS,low polyreactivity
5,QVQLVESGAGIVQAGGSLRLSCAASGRIFRYNAMGLYRQAPGKERELVAAITWSGVSTYYAHSVKGRFTISRDTAKITVFLQMNSLYPEDTGVYYCNGRRWPAWSSYDYWGQGTQVNVSS,high polyreactivity
6,QVQLVESGGGLVQSGGSLRLTCAASGSIIRYYTMGWYRQAPGKERELVATITQSGGSTYYADSVKGRFTISRDNAKNTVYLQINSLKPEDTAVYYCAALVRRGFRLYGSWGQGTQVTVSS,high polyreactivity
7,QVQLVESGGGLVQAGGSLRLSCAASGNTFASYVMGWYRQAPGNERELVAAISWSGGSTYYADSVKGRFTISRDNAKNTVYLQMNSLKPEDTAVYYCNAKRNVRYGYWGQGTQVTVSS,high polyreactivity
8,QVQVVESGGGLVQAGGSLRISCAASGRILGNNVMGWYRQAPWKERDLVAAITSSGGRTYYADSVKGRFTISRDNAKNTVYLQMNSLKPVDTAVYYCAAERRYYGKFNYWGHGTQVTVSS,high polyreactivity
9,QVQHVESGVGLDQAGGSLRLSCAASGSIFYWNAMGWYRQAPGKEREFVATITITTSTNYADSVKGRFTISRDNAKNPVNLQMNSLKPEDTAVYYCNAGAPYRYLDEYNYWGQGTKVTVSS,low polyreactivity
10,QVQLVESGGGLVQAGGSLRLSCAASGIIFGYYAMGWYRQAPGKERELVAAITSGTSTYYADSVKGRFTISRDNAKNTVYLQMNSLKPEDTAVYYCNIVRRYGDEDSWGQGTQVTVSS,high polyreactivity
11,QVQLVESGGGLVQAGGSLRLSCAASGSTFPFYAMGWYRPAPGKERELVAAITSGGSTYADSVKGRFTISRDNAKNSVYLQMNSLKPEDTAVYYCAASWPRWWRFGYWGQGTQVTVSS,low polyreactivity
12,QDQLVESGGGLVQAGGSLRLSCAASGLIFSYYAMGWYRQAPGKERELVAAIDWISGSKYYADSVKGLFTISRDNAKNTVYLQMNSLKPEDTAVYYCAAYGSFWYARFGYCGQGTQVTVSS,low polyreactivity
13,QVKLVESGGGLVQAGGSLRLSCAASGLIFGYNTMGWYRQAPGKERELVAAITRSGGSTYYADSVKGRFTISRDNAKNTVYLQMNSLKPEDTAVYYCAARHRSAYYHLDYWGQGTQVTVSS,high polyreactivity
14,QVQLVESGGGLVQAGGSLRLSCAASGRIFGKYVMGWYRQAPGKERELVAAISRSGGSTSYADSVKGRFTISRDNAKNTVYLQMNSLKPEDTEVYYCAAGFLSGWWFAYDYWGQGTQVTVSS,high polyreactivity
15,QVQLVESGGGLVQAGGSLRLSCAASGSIFTFYAMGWYRQAPGKERELVATITWSGGSTFYADSVKGRFTISRDNAKNTVYLQMNSLKPEDTAVYYCAAYRVDYSDAYYYWGQGTQVTVSS,low polyreactivity
16,QVQLVESGGGLVQAGGSLRLSCAASGSTFYGYAMGWYRQAPGKERELVAAITRSGGSTYYADSVKGRFTISRDNAKYTVYLQMNSLKPEDTEVYYCNKYGYKGGVGYDYWGQGTQVTVSS,high polyreactivity
